Experiment [1] concerns the target T1, cynomolgus monkey BDCA2 (full-length, cell surface, E73 SNP form) (cynomolgus monkey, UniProt Q8WTT0 1-213 (human entry)).
T1 construct: also called cyno BDCA2; surface cynomolgus monkey BDCA2
T1 chain: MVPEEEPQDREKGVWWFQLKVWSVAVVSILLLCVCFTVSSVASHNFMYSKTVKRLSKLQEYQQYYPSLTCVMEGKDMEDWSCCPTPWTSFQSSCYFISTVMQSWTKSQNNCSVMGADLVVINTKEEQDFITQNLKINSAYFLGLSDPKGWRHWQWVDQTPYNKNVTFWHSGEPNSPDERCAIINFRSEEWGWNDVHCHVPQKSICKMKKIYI
In words: flow cytometry, whole blood pDCs of cynomolgus monkey donor 12, anti-human IgG PE secondary. On the procedure: (§1) The MFI of PE was calculated in FlowJo software, and the percent of maximal binding, using the 40 μg/mL point as 100%, was computed. Each line represents one individual cynomolgus monkey, for a total of twelve cynomolgus monkeys, and graphed using GraphPad Prism software (four-parameter nonlinear regression curve fit of log-transformed data). Staining was repeated once a week for three weeks total.
(§2) The maximal values were taken from the values at the plateau in each assay (FIGS. 24 and 25).
(§3) MFI of PE was calculated with FlowJo software, and EC50 curves were generated in GraphPad Prism software.

For experiment [2], the target named is T1, cynomolgus monkey BDCA2 (full-length, …). Nature of the experiment: flow cytometry, whole blood pDCs, average of the twelve cynomolgus monkey donors. How it is done: as §2, §3
On the technique in general: In flow cytometry, cells or beads pass a laser one at a time.

The target is the same in experiment [3]. In words: flow cytometry, whole blood pDCs of cynomolgus monkey donor 3, anti-human IgG PE secondary. On the procedure:
as §1, §2, §3

Experiment [4] has the same target. Nature of the experiment: flow cytometry, whole blood pDCs of cynomolgus monkey donor 11, anti-human IgG PE secondary. How it is done: as §2, §3
The target of experiment [5] is T2, human BDCA2 (full-length, cell surface) (human, UniProt Q8WTT0 1-213).
T2 sequence: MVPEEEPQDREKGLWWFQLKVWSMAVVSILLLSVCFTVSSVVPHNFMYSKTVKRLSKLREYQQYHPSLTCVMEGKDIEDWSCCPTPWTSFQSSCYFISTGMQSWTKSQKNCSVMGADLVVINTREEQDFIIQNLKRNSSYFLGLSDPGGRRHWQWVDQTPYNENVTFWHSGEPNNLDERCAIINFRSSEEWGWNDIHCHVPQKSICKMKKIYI
Nature of the experiment: cell-based or functional assay.

The target in experiment [6] is T2, human BDCA2 (full-length, cell surface). Nature of the experiment: flow cytometry, whole blood, Alexa647-labeled BIIB059 on pDCs. On the procedure: (§4) Cynomolgus monkey (Toxikon, Inc, Bedford, Mass.) or human peripheral blood (Biogen Idec) were collected in sodium heparin collection tubes and maintained at room temperature. A FACS staining antibody cocktail for identifying pDCs was added to each whole blood aliquot, incorporating CD20, CD14, CD123 and HLA-DR antibodies. […] Blood was incubated on ice, protected from light, for 30 min. […] After a 10-15 min. incubation at room temperature, samples were centrifuged at 1400 rpm for 5 min. The supernatant was decanted, leaving only a pellet of white blood cells (WBC). Each WBC pellet was washed with 5 mL of FACS buffer (1% BSA+0.002% NaAzide+1 mM CaCl₂+1 mM MgCl₂ in PBS), and centrifuged at 1400 rpm for 5 min. The supernatant was decanted, and each WBC pellet was resuspended in 200 μL of FACS buffer and transferred to a 96-well round bottom plate (Fisher Scientific). The plate was centrifuged at 1400 rpm for 5 min. The supernatant was dumped out of the plate, and each WBC pellet was washed with 200 μL of FACS buffer. The plate was centrifuged at 1400 rpm for 5 min, and the supernatant dumped out of the plate. Following washing (as above), WBCs were resuspended in 200 μL of 1% paraformaldehyde (PFA) in PBS, and fixed at 4° C. overnight, protected from light. […] Each WBC pellet was resuspended in 250 μL of FACS buffer and fluorescence intensity measured on a LSRII 4-color FACS machine. […]

Experiment [7] concerns the target T1, cynomolgus monkey BDCA2 (full-length, …). Described as above. How it is done:
as §4

Experiment [8] concerns the target T2, human BDCA2 (full-length, cell surface). In words: flow cytometry, Alexa647-labelled BIIB059 on pDCs in human whole blood, on ice. How it is done: as §4
The target in another experiment is T3, human C1q (human, UniProt P02745 23-245; P02746 28-253; P02747 29-245).
T3 construct: also called complement component C1q
In words: C1q ELISA: antibody coated in a dilution series, human C1q at 2 µg/mL, read at 450 nm; column C (midpoint, the C value of paragraph 430) of the printed 4-parameter fit; the axis reads Concentration with no unit, the unit of the coated antibody is from the legend paragraph 61; A 0.061, B 2.527, D 2.212, R^2 1. For orientation: An ELISA detects its analyte on a solid surface through an enzyme-linked reagent.

Experiment [9] addresses T1, cynomolgus monkey BDCA2 (full-length, …). Nature of the experiment: indirect method: flow cytometry of pDCs in cynomolgus whole blood, unlabelled BIIB059 titrated, free BDCA2 detected with the competitor BIIB059-A647 at 10 ug/mL [panel Cynomolgus monkey 8]. How it is done:
The MFI of PE (open symbols, graphed on the left y-axis) or A647 (closed symbols, graphed on the right y-axis) was calculated in FlowJo software, and graphed using GraphPad Prism software (four-parameter nonlinear regression curve fit of log-transformed data).

The values below come from US20180362652A1 (Biogen, published 2018).

Values joined by “and” are separate entries in the source; they are usually repeats but may differ in a detail not shown here. Equal values may be shown once.

T3 sequence (P02745 23-245 limits assumed, chain 1 of 3): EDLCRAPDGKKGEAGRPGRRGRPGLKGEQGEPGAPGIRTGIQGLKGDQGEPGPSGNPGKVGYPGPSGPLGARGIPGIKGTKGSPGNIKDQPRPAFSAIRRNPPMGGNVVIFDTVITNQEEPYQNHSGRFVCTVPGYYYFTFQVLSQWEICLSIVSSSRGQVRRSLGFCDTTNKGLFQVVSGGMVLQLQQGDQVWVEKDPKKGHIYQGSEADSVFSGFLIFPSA
T3 sequence (P02746 28-253 limits assumed, chain 2 of 3): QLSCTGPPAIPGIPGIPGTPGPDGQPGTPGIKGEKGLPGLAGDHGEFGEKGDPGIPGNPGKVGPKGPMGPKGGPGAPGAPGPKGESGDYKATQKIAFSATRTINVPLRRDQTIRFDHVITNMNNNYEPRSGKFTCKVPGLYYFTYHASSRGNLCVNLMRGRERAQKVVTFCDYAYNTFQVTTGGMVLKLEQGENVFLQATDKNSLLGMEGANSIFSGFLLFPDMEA
T3 sequence (P02747 29-245 limits assumed, chain 3 of 3): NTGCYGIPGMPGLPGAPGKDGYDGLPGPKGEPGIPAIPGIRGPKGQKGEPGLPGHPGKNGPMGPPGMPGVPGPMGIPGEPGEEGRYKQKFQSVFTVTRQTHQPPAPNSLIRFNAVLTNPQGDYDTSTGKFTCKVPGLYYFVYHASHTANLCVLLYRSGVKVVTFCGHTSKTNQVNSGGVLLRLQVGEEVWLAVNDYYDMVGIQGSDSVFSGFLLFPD

B1: BIIB059 (antibody, human IgG1, kappa)
heavy: not shown
light: DIQLTQSPSSLSASVGDRVTITCKASQSVDYDGDSYMNWYQQKPGKAPKLLIYAASTLESGVPSRFSGSGSGTDFTLTISSLQPEDFATYYCQQANEDPRTFGQGTKVEIKRTVAAPSVFIFPPSDEQLKSGTASVVCLLNNFYPREAKVQWKVDNALQSGNSQESVTEQDSKDSTYSLSSTLTLSKADYEKHKVYACEVTHQGLSSPVTKSFNRGEC
notes: Humanized IgG1 kappa, mature chains; in some assays labelled with Alexa647; also called hu24F4 H4/L1 C95A; H4-L1-C95A (YL751/YL746)
In the case of B1, the EC50 (as a rule, the concentration needed to bring the measured effect to its halfway point) in experiment [1] was 1.6 µg/mL; in experiment [2] it was 1.2 µg/mL; in experiment [3] it was 0.95 µg/mL; in experiment [4] it was 1.4 µg/mL; in experiment [6], 1 µg/mL to 2 µg/mL (2×) and 7 nM to 13 nM; in experiment [7], 2 µg/mL and 7 nM to 13 nM. Besides, the values for the EC50 (in [8]; with human C1q) were 1.44 µg/mL and 2.5 µg/mL, respectively. In addition, the “EC50 of BIIB059-mediated BDCA2 internalization (whole blood, 10 donors)” value in experiment [5] turned out to be 0.02 µg/mL. For the same molecule, the “IC50 for inhibition of TLR9-induced IFNα production by PBMC” value in experiment [5] is 0.001 µg/mL. Further, the “IC50 for inhibition of TLR9-induced IFNα production by PBMC from healthy donors” value in experiment [5] was found to be 0.04 µg/mL. Further, the “IC50 for inhibition of immune complex-induced IFNα by pDCs” value in [5] is 0.04 µg/mL. Further, in [5], the “IC50 of BIIB059 mediated inhibition of TLR9 induced IFNα (whole blood, 10 donors)” value stood at 0.07 µg/mL. In [9], the “IC50 (read off the curve)” value was around 2 µg/mL.
